Assays:
Assay in all cases: SPR
[1] = system: ParRC(pCW3) (Clostridium perfringens plasmid pCW3)
[2] = system: ParRB(pJIR4165) (Clostridium perfringens plasmid pJIR4165)
[3] = system: ParRD(pJIR3118) (Clostridium perfringens plasmid pJIR3118 (CN1020 gDNA))

| Sequence | binding signal [1] [RU] | binding signal [2] [RU] | binding signal [3] [RU] |
| --- | --- | --- | --- |
| CATAAACATCACAATTTTACGTAATTTAGA / TCTAAATTACGTAAAATTGTGATGTTTATGCCTACCCTACGTCCTCCTGC [parCC C12] | 348 |  |  |
| AATTAAAAACATCACAATTTTACGTAATGA / TCATTACGTAAAATTGTGATGTTTTTAATTCCTACCCTACGTCCTCCTGC [parCC C1] | 256 |  |  |
| TCACTATATGTATATACTGAATATATACAT / ATGTATATATTCAGTATATACATATAGTGACCTACCCTACGTCCTCCTGC [parCB B2] |  | 383 |  |
| AATATAAAAACATAAACATCACAATTTTAC / GTAAAATTGTGATGTTTATGTTTTTATATTCCTACCCTACGTCCTCCTGC [parCC C11] | 154 |  |  |
| ACATTAAAAGATACTAATTAATATTATTTA / TAAATAATATTAATTAGTATCTTTTAATGTCCTACCCTACGTCCTCCTGC [parCD D12] |  |  | 250 |
| AAAAAACATCACAATTTTACATAATAGAAA / TTTCTATTATGTAAAATTGTGATGTTTTTTCCTACCCTACGTCCTCCTGC [parCC C16] | 311 |  |  |
| AAAATGAAAAAAACATCACAATTTTACGGA / TCCGTAAAATTGTGATGTTTTTTTCATTTTCCTACCCTACGTCCTCCTGC [parCC C5] | 249 |  |  |
| ATGTTAAATGATATTAAATAACATTAAAAG / CTTTTAATGTTATTTAATATCATTTAACATCCTACCCTACGTCCTCCTGC [parCD D10] |  |  | 270 |
| ATCACAATTTTACGTAATGACAGTTTGTTG / CAACAAACTGTCATTACGTAAAATTGTGATCCTACCCTACGTCCTCCTGC [parCC C2] | 54 |  |  |
| GAATAATATTAAATAATATCAAATAATATT / AATATTATTTGATATTATTTAATATTATTCCCTACCCTACGTCCTCCTGC [parCD D3] |  |  | 225 |
| AAACATCACAATTTTACGGAAAATGCTTGA / TCAAGCATTTTCCGTAAAATTGTGATGTTTCCTACCCTACGTCCTCCTGC [parCC C6] | 282 |  |  |
| GTAATTTAGATTTTGCAAGTAAAAAACATC / GATGTTTTTTACTTGCAAAATCTAAATTACCCTACCCTACGTCCTCCTGC [parCC C14] | 42 |  |  |
| ATTTTACGGAAAATGCTTGATTTAGATTGA / TCAATCTAAATCAAGCATTTTCCGTAAAATCCTACCCTACGTCCTCCTGC [parCC C7] | 9 |  |  |
| ACAATTTTACGTAATTTAGATTTTGCAAGT / ACTTGCAAAATCTAAATTACGTAAAATTGTCCTACCCTACGTCCTCCTGC [parCC C13] | 48 |  |  |
| AGGTATAAACTCAGTATATACATGATTGAA / TTCAATCATGTATATACTGAGTTTATACCTCCTACCCTACGTCCTCCTGC [parCB B17] |  | 368 |  |
| AGGTTATTTAATGTTAAATGATATTAAATA / TATTTAATATCATTTAACATTAAATAACCTCCTACCCTACGTCCTCCTGC [parCD D9] |  |  | 213 |
| AAATAATATCAAATAATATTATTTAATGTC / GACATTAAATAATATTATTTGATATTATTTCCTACCCTACGTCCTCCTGC [parCD D4] |  |  | 232 |
| ATACTAATTAATATTATTTAATTATTGACT / AGTCAATAATTAAATAATATTAATTAGTATCCTACCCTACGTCCTCCTGC [parCD D13] |  |  | 187 |
| TTTTGCAAGTAAAAAACATCACAATTTTAC / GTAAAATTGTGATGTTTTTTACTTGCAAAACCTACCCTACGTCCTCCTGC [parCC C15] | 217 |  |  |
| ATATTAAATAACATTAAAAGATACTAATTA / TAATTAGTATCTTTTAATGTTATTTAATATCCTACCCTACGTCCTCCTGC [parCD D11] |  |  | 236 |
| TTTATTAATTTCACTATATGTATATACTGA / TCAGTATATACATATAGTGAAATTAATAAACCTACCCTACGTCCTCCTGC [parCB B1] | -2.8 | 58 | 1.1 |
| TAGTATATATCTAGTATATACTAAATTTAT / ATAAATTTAGTATATACTAGATATATACTACCTACCCTACGTCCTCCTGC [parCB B21] |  | 377 |  |

From PMC9426499
